B1: LINE1-mini (parent)
chain: GGCAGAGCUCAACACAGCGUGGCAAAGUGGCUGUGGCUAGACUGCC

Variants of: B1
Assay: self-cleavage, relative activity (ratio to wild type); higher = more cleavage; in vitro, sequencing; the parent is a self-cleaving ribozyme

| Variant | self-cleavage |
| --- | --- |
| GGUAGAGCUCAACACAGUGUGGCAAAGUGGCUGUGGCUAGACUGCC | 0.42 |
| GGGAGAGCUCAACACAGCGUGGCAAAGAGGCUGUGGCUAGACUGCC | 0.22 |
| GGCAGAGCUCAACACAGCGUGGCAAAGCGGUUGUGGCUAGACUGCC | 0.45 |
| GGUAGAGCUCAACACAGCGUGGCAAAGUGGCUGAGGCUAGACUGCC | 0.06 |
| GUCAGAGCUCAACACAGCGUGGCAAAGUGGCUGUAGCUAGACUGCC | 0.05 |
| GGGAGAGCUCAACACAGCGUGGCAAAGUGGCUGUGGCUAGACUGCU | 0.17 |
| GGCAGAGAUCGACACAGCGUGGCAAAGUGGCUGUGGCUAGACUGCC | 0.04 |
| GGCAGAGCUCAACACAGAGUGGCUAAGUGGCUGUGGCUAGACUGCC | 0.67 |
| GGCAGAGCUCAACACAGCGUUGCAAAGUGGCUUUGGCUAGACUGCC | 0.17 |
| GGCAGAGCUCAAAACAGCGUGGCAAAGUGGCUGUGGCUAGACAGCC | 0.21 |
| GGCAGAGCUCAACACAGCGUGGCAAAGUGCCUGUGACUAGACUGCC | 0.1 |
| CGCAGAGCUCAACACACCGUGGCAAAGUGGCUGUGGCUAGACUGCC | 0.06 |
| GGCAGAGCUCAACUCAGCGUGGCAAAGUGGCUGUGGCAAGACUGCC | 0.34 |
| GGCGGAGCUCAACACAGCGUGGCAAAGUGGCUGUGGCUAGACUGAC | 0.45 |
| GGCAGAGCCCAACACAGCGUGGCAAUGUGGCUGUGGCUAGACUGCC | 0.11 |
| GGCAGAGCUCAACACCGCGUGGCAAAGUGGCAGUGGCUAGACUGCC | 0.13 |
| GGCAGAGCUCAACACAGCGUAGCAAAGUGGCUGUGGCUAGAAUGCC | 0.54 |
| GGCAGAGCUCAACACAGCGUGGCAAAGUGUCUGUGGUUAGACUGCC | 0.05 |
| GGCAGAGCUCAACACAGCGUGGCUAACUGGCUGUGGCUAGACUGCC | 0.61 |

| Variant | self-cleavage |
| --- | --- |
| GGCAGAGCUAAACACAGCGUGGCAAAGUGGCUGUGGCUAGACUGCA | 0.05 |
| GGCAGAGCUCAACAUAGCGUGGCAAAGUGGCUGUGGCUAGGCUGCC | 0.25 |
| GGCAAAGCUCAACACAGCGGGGCAAAGUGGCUGUGGCUAGACUGCC | 0.13 |
| GGCAGAGCUCAACUCAGAGUGGCAAAGUGGCUGUGGCUAGACUGCC | 0.11 |
| GGCAGAGCUCAACACAGCGUGGCAAAGUGGCCGUGGCGAGACUGCC | 0.01 |
| GGCAGAGCUCAACACAGCGUGGCAAAGUGGCGGUGGCUAGGCUGCC | 0.08 |
| GGCAGAGCUCAACACAGCGUUGCAAAGUCGCUGUGGCUAGACUGCC | 0.4 |
| GGCAGAGGUCAACACAGCGUGGCAAAGUGGAUGUGGCUAGACUGCC | 0.06 |
| GGCAUAGCUCAACACAGCGUGGCAAAGUGGCUGUGGCUAGACUUCC | 0.06 |
| GCCAGAGCUCAACACAGCGUGGCAAAGUGGCUGUGGCUACACUGCC | 0.07 |
| GGCAGAGCGCAACACAGCGUGACAAAGUGGCUGUGGCUAGACUGCC | 0.21 |
| GCCAGAGCUCAACACAGCGUGGCAAACUGGCUGUGGCUAGACUGCC | 0.12 |
| GGCAGAGCUCAACACAGCGUGGCAAGGUGGCUGUAGCUAGACUGCC | 0.1 |
| GGCAGAGCUCAACACAGCGGGGCAAAGUGGCUGUGUCUAGACUGCC | 0.07 |
| GGCAGAGCUCAACACAGCGUGGCAGAGUGGCUGUGGUUAGACUGCC | 0.06 |
| GGUAGAGCUCAACACAGCGUGGCAAAGUGGCUGUGGCUAGACCGCC | 0.09 |
| GACAGAGCUCAACACAGCGUGGCAAAGUGGAUGUGGCUAGACUGCC | 0.23 |
| GGCAGAGCUCAACACAGCGUGCCAAAGUGGCUGUGGCUAGACGGCC | 0.06 |
| GGCAGAGCUCAACAAACCGUGGCAAAGUGGCUGUGGCUAGACUGCC | 0.04 |

| Variant | self-cleavage |
| --- | --- |
| UGCAGAGCUCAACACAGCGUGGCAAAGUGGCUGUGGCUAGACCGCC | 0.06 |
| GGCAGAGCUUACCACAGCGUGGCAAAGUGGCUGUGGCUAGACUGCC | 0.02 |
| GGCAGAGCUCAAGACAGCGGGGCAAAGUGGCUGUGGCUAGACUGCC | 0.13 |
| GGCAGAGCUCAACACUGCGUGGCAAAGUGGCUGUGGCCAGACUGCC | 0.04 |
| GGCAGAGCUUCACACAGCGUGGCAAAGUGGCUGUGGCUAGACUGCC | 0.05 |
| GGCAGAGCUCAACACAUCGUGGCGAAGUGGCUGUGGCUAGACUGCC | 0.09 |
| GGCAGAGCUCAACACAGCGUGGCAAGGUGGCUGUGGCUAGACUGCG | 1.53 |
| GGCAGAGCUCAACACAACGUGGCAAAGUGGCUGUGGCUGGACUGCC | 0.06 |
| GGCAGAGCUCAACAGAGCGUGGCAUAGUGGCUGUGGCUAGACUGCC | 0.04 |
| AGCAGAGCUCAACACAGCGUGGCAAAGUGGCUGUGGCUAGACUGCA | 2.61 |
| GGCAGAGCACAACACAGCGUGGCAAAGUGGCUGUGGCUAGACAGCC | 0.2 |
| GGCAGAGCUCAACUCAGCGUGGCAAAGUGGCCGUGGCUAGACUGCC | 0.15 |
| GGCAGAGCUCAACACCGCGUGGCAAAGUGGCUGUGGCUAGUCUGCC | 0.05 |
| GCCAGAGCUCAACACAGGGUGGCAAAGUGGCUGUGGCUAGACUGCC | 0.05 |
| GGCAGAGCUCAACACAGCGUGGCAUAGUGGCUGUGCCUAGACUGCC | 0.05 |
| GGCAGAGCUUAACACAGCGUGGCAAAGUGGCUGUGGCUUGACUGCC | 0.37 |
| GGCAGAGCUCAACACAGCGUGGCAAAGAGGCUUUGGCUAGACUGCC | 0.16 |
| GACAGAGCUCAACACAGCAUGGCAAAGUGGCUGUGGCUAGACUGCC | 1.72 |

— the RNAGym collection of RNA variant scans (doi:10.7554/elife.90254)
